Patent US20120107324A1 (published 2012)
Positions count from the first letter of the chain named.

B1: 1F2.2B7 (antibody, IgG4, V domains shown)
VH: QVQLVESGGGVVQPGRSLRLSCAASGFTFRSYGMHWVRQAPGKGLEWVAVIWYDGSNKYYADSVKGRFTISRDNSKNTLYLQMNSLRAEDTAMYYCARDGAARRGDYYYYHGMDVWGQGTTVTVSS
VL: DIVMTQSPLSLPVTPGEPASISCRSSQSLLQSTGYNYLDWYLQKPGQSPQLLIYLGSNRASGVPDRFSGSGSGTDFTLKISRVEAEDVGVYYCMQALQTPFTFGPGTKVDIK
notes: also called mAb 1F2.2B7
B2: 3F12.4A1 (antibody, IgG2, V domains shown)
VH: B1 VH with R30S, S56T, R87T, M93V, G100M, H111Y, Q118P
VL: DIVMTQSPLSLPVTPGEPASISCRSSQSLLNGIGYNFLDWYLQKPGQSPQLLIYLGSNRASGVPDRFSGSGSGTDFTLTISRVEAEDVGVYYCMHALQTPFTFGPGTKVDIK
notes: Isotype IgG2/k
B3: 2H12 (antibody, IgG4, V domains shown)
VH: B1 VH with R30S, S56T, N77T, M93V, H111Y
VL: B2 VL with N31R, I33H, N36S, F37Y, T79K, H95Q
notes: Identified as an IgG4/k antibody; also called MAb 2H12; 2H12 IgG4
B4: 7B1.3A1 (antibody, IgG4, V domains shown)
VH: B1 VH with I51L, Y59N
VL: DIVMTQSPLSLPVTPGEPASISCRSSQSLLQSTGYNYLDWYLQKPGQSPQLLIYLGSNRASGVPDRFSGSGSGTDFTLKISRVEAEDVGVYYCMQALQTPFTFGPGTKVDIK
notes: also called MAb 7B1.3A1
B5: 4G3.3D11 (antibody, IgG4, V domains shown)
VH: B1 VH with T28I, R30S, S56T, M93V, H111Y
VL: B2 VL with N31H, I33T, N36S, F37S, T79K, Y92F, H95Q
notes: Isotype IgG4/k
B6: 2G2.2B5 (antibody, IgG4, V domains shown)
VH: B1 VH with R30S, M93V, H111Y
VL: B2 VL with D1E, S26G, N31Q, G32S, I33T, Y35S, F37Y, D39A, T79K, H95Q
notes: Isotype IgG4/k
B7: IIA1 (antibody, V domains shown)
VH: QVQLKESGPGLVAPSQSLSITCTISGFSLTDYGVHWVRQPPGKGLEWLVVIWSDGSSTYNSALKSRMTIRKDNSKSQVFLIMNSLQTDDSAMYYCARHGTYYGMTTTGDALDYWGQGTSVTVSS
VL: QIVLTQSPAIMSASLGERVTMTCTASSSVSSNYLHWYQQKPGSAPNLWIYSTSNLASGVPARFSGSGSGTSYSLTISSMEAEDAATYYCHQYLRSPPTFGGGTKLEIK
B8: 2H12 IgG2 WT (antibody, V domains shown)
VH: B1 VH with R30S, S56T, M93V, H111Y
VL: B2 VL with N31R, I33H, N36S, F37Y, T79K, H95Q
B9: 2H12 Variant 1 (IgG2) (antibody, V domains shown)
VH: B1 VH with R30S, S56T, M93V, H111Y
VL: B2 VL with N31R, I33H, N36S, F37Y, T79K, H95Q

Target: T1, human α5β1 integrin (human, UniProt P08648 42-1049; P05556 21-798)
T1 sequence (P08648 42-1049, chain 1 of 2): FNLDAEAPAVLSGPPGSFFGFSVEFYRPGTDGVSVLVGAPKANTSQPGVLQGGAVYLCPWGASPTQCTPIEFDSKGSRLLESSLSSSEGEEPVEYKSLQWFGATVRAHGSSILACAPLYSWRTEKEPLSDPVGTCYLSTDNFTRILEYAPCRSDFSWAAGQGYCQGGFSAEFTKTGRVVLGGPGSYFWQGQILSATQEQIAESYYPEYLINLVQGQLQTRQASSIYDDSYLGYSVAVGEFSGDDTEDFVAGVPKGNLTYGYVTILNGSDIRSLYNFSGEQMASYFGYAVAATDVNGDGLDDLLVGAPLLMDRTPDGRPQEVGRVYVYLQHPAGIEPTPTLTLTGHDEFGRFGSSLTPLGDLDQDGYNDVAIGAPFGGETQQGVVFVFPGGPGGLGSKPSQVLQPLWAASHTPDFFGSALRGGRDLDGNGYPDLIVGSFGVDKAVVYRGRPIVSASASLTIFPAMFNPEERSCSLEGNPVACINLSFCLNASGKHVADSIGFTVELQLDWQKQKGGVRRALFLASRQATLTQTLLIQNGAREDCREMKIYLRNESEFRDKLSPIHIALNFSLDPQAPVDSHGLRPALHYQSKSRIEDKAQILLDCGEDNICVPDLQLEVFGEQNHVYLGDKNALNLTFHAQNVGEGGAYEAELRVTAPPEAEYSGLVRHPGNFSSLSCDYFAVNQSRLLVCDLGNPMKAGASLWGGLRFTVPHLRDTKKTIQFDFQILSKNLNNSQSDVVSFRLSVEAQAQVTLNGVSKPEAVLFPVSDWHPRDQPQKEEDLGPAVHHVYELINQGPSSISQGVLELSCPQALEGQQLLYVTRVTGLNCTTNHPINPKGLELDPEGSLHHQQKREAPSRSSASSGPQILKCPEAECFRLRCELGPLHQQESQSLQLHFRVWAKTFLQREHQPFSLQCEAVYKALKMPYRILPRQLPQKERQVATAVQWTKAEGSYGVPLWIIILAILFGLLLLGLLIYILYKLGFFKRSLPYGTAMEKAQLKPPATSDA
T1 sequence (P05556 21-798, chain 2 of 2): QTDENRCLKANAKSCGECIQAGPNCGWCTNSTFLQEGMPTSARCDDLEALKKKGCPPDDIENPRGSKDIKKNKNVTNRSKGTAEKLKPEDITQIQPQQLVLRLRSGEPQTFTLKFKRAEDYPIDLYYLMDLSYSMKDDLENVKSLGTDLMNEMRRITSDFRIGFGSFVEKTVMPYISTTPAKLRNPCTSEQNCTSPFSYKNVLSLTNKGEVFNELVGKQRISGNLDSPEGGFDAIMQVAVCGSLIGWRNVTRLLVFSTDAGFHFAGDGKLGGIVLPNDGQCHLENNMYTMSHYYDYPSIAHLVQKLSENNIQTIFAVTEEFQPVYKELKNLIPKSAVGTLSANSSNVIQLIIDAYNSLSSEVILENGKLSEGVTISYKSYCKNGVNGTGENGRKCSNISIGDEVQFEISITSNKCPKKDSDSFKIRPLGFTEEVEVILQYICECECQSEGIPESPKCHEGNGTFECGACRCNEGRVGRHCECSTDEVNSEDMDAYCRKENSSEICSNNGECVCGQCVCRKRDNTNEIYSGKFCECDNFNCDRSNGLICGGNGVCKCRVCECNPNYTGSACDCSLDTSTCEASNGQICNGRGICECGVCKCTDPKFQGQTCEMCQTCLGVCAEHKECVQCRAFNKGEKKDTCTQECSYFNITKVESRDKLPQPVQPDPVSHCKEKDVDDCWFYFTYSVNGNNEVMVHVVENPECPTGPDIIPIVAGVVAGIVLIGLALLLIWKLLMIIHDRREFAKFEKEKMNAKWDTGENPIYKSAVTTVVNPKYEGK
Assay: cell-based or functional assay

In order of falling “% Inhibition of cell adhesion, n = 1 (K562 on full length FN, supernatant 1 in 4)” value:
1. B2  103%
2. B6  100%
3. B4  98%
4. B5  96%
5. B1  93%
6. B3  89%

In order of falling “% Inhibition of cell adhesion, n = 2 (K562 on full length FN, supernatant 1 in 4)” value:
1. B1  102%
2. B6  102%
3. B2  100%
4. B3  100%
5. B4  100%
6. B5  99%

In order of rising “% Inhibition of cell adhesion, n = 3 (K562 on GST-FNIII(9-10), no pre-incubation, supernatant 1 in 4)” value:
1. B4  91%
2. B3  96%
3. B2  97%
4. B6  97%
5. B1  100%
6. B5  102%

In order of falling “% Inhibition of cell adhesion, n = 4 (K562 on GST-FNIII(9-10), supernatant 1 in 10)” value:
1. B5  100%
2. B1  98%
3. B2  93%
4. B4  93%
5. B3  92%
6. B6  82%

In order of falling “% Inhibition of cell adhesion, n = 5 (K562 on GST-FNIII(9-10), supernatant 1 in 10)” value:
1. B2  91%
2. B3  89%
3. B4  84%
4. B5  81%
5. B6  78%
6. B1  77%

Target: T2, α4β1 integrin (UniProt P13612 34-1032; P05556 21-798)
T2 sequence (P13612 34-1032, chain 1 of 2): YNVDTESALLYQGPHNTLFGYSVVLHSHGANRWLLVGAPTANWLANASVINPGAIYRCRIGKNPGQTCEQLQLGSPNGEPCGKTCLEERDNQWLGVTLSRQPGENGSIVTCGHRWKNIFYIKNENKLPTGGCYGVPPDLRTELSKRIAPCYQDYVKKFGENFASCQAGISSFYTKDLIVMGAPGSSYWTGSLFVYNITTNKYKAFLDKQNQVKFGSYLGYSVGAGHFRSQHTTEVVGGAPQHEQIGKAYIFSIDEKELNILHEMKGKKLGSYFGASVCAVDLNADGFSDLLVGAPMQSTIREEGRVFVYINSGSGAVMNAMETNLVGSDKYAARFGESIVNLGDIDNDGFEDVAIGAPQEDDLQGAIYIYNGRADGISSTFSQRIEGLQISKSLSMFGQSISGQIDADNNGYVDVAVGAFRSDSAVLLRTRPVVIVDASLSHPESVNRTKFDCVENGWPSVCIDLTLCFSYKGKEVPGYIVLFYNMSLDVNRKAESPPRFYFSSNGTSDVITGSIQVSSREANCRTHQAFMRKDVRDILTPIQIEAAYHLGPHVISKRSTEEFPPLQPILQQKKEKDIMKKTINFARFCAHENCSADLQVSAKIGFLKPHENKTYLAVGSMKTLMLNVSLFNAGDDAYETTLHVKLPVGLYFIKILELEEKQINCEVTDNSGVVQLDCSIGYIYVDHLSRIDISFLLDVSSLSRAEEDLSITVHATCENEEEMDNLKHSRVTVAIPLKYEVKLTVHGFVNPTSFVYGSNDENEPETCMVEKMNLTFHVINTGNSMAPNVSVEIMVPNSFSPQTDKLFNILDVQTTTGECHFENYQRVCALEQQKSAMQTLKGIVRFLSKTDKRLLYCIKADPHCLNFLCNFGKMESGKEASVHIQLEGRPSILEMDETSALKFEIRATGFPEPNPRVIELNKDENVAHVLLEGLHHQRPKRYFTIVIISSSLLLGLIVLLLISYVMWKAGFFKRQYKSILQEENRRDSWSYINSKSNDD
T2 sequence (P05556 21-798, chain 2 of 2): as the sequence (P05556 21-798, chain 2 of 2) above
Assay: cell-based or functional assay

In order of rising “% Inhibition of adhesion, CS1 n = 1 (J6.77 Jurkat cells on GST-CS-1)” value:
1. B6  28%
2. B1  29%
3. B4  33%

In order of rising “% Inhibition of adhesion, CS1 n = 2 (J6.77 Jurkat cells on GST-CS-1)” value:
1. B6  -5%
2. B4  12%
3. B1  22%

Target: T1, human α5β1 integrin
Assay: cell-based or functional assay
Remark: another data set of the same source

In order of rising “IC50 ng/mL (adhesion of K562 cells to GST-Fibronectin type III domains 9-10)” value:
1. B7  16.7 ng/mL
2. B3  43.2 ng/mL
3. B4  49.8 ng/mL
4. B5  60.2 ng/mL

Target: T2, α4β1 integrin
Assay: cell-based or functional assay
Remark: another data set of the same source

In order of falling “Average % inhibition at 5 ug/ml (J6 cell adhesion to GST-CS-1)” value:
1. B2  -2%
2. B4  -7%
3. B6  -11%

Target: T1, human α5β1 integrin
Assay: cell-based or functional assay
Remark: another data set of the same source

In order of falling “IC50 (read off the curve), adhesion of K562 cells to GST-fibronectin repeats 8-10” value:
1. B8  ~0.2 µg/mL
2. B9  ~0.2 µg/mL
3. B3  ~0.2 µg/mL

Target: T3, β1 chain (integrin β1) (human, UniProt P05556 21-798)
T3 construct: whole, on cells; also called b1; beta1
T3 sequence (P05556 21-798): as the sequence (P05556 21-798, chain 2 of 2) above
Assay: FACS on HT29 cells (no α5 chain, β1 chain present)
Experimental: (§1) To confirm the antibodies bind to the α5 chain or to the α5β1 heterodimer, binding to Human colon adenocarcinoma grade II cells (HT29 cells) was assessed by FACS. […] HT-29 cells were suspended in HBSS with 1% BSA and 1 mM final MnCL₂ at a concentration of 6×10⁵ cells/ml. 12.5 uL of the primary antibody was added to 37.5 ul of cells and the plate incubated on ice for 60 minutes. A range of negative controls were included as described previously (indicated as below). In addition as a positive control antibodies to αvβ6 (Mab2077, Chemicon), α5β1 (Mab1909, Chemicon) and αv (L230, Chemicon) were included. 100 uL of HBSS buffer was added to dilute primary antibody, the cells pelleted by centrifuging at 1500 rpm for 3 minutes and resuspended in 50 ul Goat anti-human IgG Fc Cy5 or Goat anti Mouse IgG Fc Cy5 secondary at 2 ug/mL. They were then incubated on ice for a further 7 minutes, and 100 uL of HBSS buffer was added to dilute secondary antibody. Finally cells were pelleted by centrifuging at 1500 rpm for 3 minutes, HBSS Buffer/secondary supernatant removed, washed twice in 100 ul of FACS buffer was added and the cells were resuspended and then read on a FACS Calibur HTS. Samples were analyzed using Cell Quest Pro software. The data is represented in Table 6 and confirm that the antibodies are selective for α5β1.

B1: no binding.
B2: no binding.
B4: no binding.
B5: no binding.
B6: no binding.

Target: T4, Macaque α5β1 (Macaque)
T4 construct: whole, on cells; On macaque T-cells (from frozen PBMCs); also called monkey α5β1; monkey integrin
Assay: FACS on macaque T-cells; Goat anti Human IgG Fc Cy5 alone 3
Experimental: To determine whether the antibodies cross reacted to monkey integrin, binding to purified Macaque T-cells was assessed. Macaque PBMCs were previously purified from whole blood, and stored frozen. Macaque PBMCs were suspended in adhesion buffer with HBSS 1% BSA and 1 mM Mn2+ (“FACS buffer”), at a concentration of 4.8×10⁵ live cells per ml. 12.5 uL of the primary antibody was added to 37.5 ul of cells, and incubated at 4° C. for 1 hour. Positive and negative controls were included as indicated. 100 uL of FACs buffer is added to dilute out primary antibody, the cells washed and resuspended in the appropriate secondary at 2 ug/mL (50 uL) with 10 ug/mL 7AAD, and stained on ice for 7 minutes. 100 uL of FACs buffer was added and cells were washed twice in FACS buffer, finally the supernatant removed and the cells were resuspended in 100 uL of buffer.
Samples were read on HTS FACS machine and analyzed using Cell Quest Pro software. The data shown in Table 7 confirm that the antibodies cross react with monkey α5β1.

In order of rising “Geo Mean on Macaque T-cells IgG detection” value:
1. B1  9
2. B4  10
3. B6  11
4. B2  13

Target: T3, β1 chain (integrin β1)
Assay: FACS on HT29 cells (α5 null, β1 present); cells alone 2.07, human secondary 2.8
Experimental: as §1

In order of falling “Binding Geomean” value:
1. B2  3.61
2. B4  3.17
3. B5  3.06
4. B6  3.03
5. B3  2.96
6. B1  2.75

Target: T1, human α5β1 integrin
Assay: FACS titration on K562 cells expressing α5β1, 1 mM MgCl2 and 1 mM CaCl2, 4 °C, nonlinear 4-parameter fit; 95% CI ±61.4 pM
Experimental: To assess the affinity of the antibodies for α5β1, a FACS based KD analysis was employed. […] K562 cells expressing α5β1 were resuspended in filtered HBS buffer containing 1 mM MgCl₂ and 1 mM CaCl₂ at a concentration of approximately 2.5-6 million cells/mL. The cells were kept on ice. Serially diluted (2×) mAbs across 11 wells in a 96-well plate. All mAbs were diluted in HBS described above. Additional HBS and cells were added to each well so that the final volume was 300 μL/well and each well contained approximately 140,000-150,000 cells. The final molecular concentration range for each mAb was 2H12: 7.5 nM-[…]. Cells were incubated on a plate shaker for 5 hours at 4° C. and then were spun/washed 3× at 4° C. with HBS. […] The Mean Fluorescence (F) of 7000 “events” was determined using FACS Canto II HTS flow cytometry instrumentation. To calculate affinity, data was fitted nonlinearly to a plot of the Mean Fluorescence as a function of molecular mAb concentration with Scientist 3.0 software using the equation:
In this equation, F=mean fluorescence, LT=total molecular mAb concentration, P′=proportionality constant that relates arbitrary fluorescence units to bound mAb, M=cellular concentration in molarity, n=number of receptors per cell, B=background signal, and KD=equilibrium dissociation constant. […]

B3 gave a Kd of 0.162 nM.
